# Source: the supplement of paper PMC7877785
# ± gives the uncertainty stated by the source.
# Assay: self-splicing fitness, log relative to wild type (ln ratio); higher = more splicing; Tetrahymena group I intron in knt gene, E. coli kanamycin selection, DiMSum; sequences stand for … in CUCUCU…GGAGGGAAAAGUUAUCAGGCAUGCACCUGGUAGCUAGUCUUUAAACCAAUAGAUUGCAUCGGUUUAAAAGGCAAGACCGUCAAAUUGCGGGAAAGGGGUCAACAGCCGUUCAGUACCAAGUCUCAGGGGAAACUUUGAGAUGGCCUUGCAAAGGGUAUGGUAAUAAGCUGACGGACAUGGUCCUAACCACGCAGCCAAGUCCUAAGUCAACAGAUCUUCUGUUGAUAUGGAUGCAGUUCACAGACUAAAUGUCGGUCGGGGAAGAUGUAUUCUUCUCAUAAGAUAUAGUCGGACCUCUCCUUAAUGGGAGCUAGCGGAUGAAGUGAUGCAACACUGGAGCCGCUGGGAACUAAUUUGUAUGCGAAAGUAUAUUGAUUAGUUUUGGAGUACUCGUGGUCG
# Method in brief: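 Pooled colonies went to amplicon sequencing on an Illumina HiSeq 2500 after six replicate transformations. The plates were LB agar with 100 μg/mL carbenicillin, 50 μM IPTG and 0.2% rhamnose, with or without 25 μg/mL kanamycin, incubated overnight at 37°C or 30°C. The E. coli BL21(DE3) library had all eight P1ex-region intron nucleotides randomised, the intron placed in the knt kanamycin-resistance gene on pET-22b(+). DiMSum fitness is the error-weighted combination of replicate fold changes, kanamycin against none, normalised to wild type.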
Sequence,self-splicing fitness (ln) (30 °C),self-splicing fitness (ln) (37 °C)
GCUUAGCAAUAUUACGGCAC,-2.62 ± 0.44,0.326 ± 0.28
GCUUAGCAAUAUUACGGCGG,-3.5 ± 0.2,-3.14 ± 0.26
GCUUAGCAAUAUUACGGGGU,-2.56 ± 0.16,-2.55 ± 0.21
GCUUAGCAAUAUUACGGUAU,-1.74 ± 0.074,-1.15 ± 0.091
GCUUAGCAAUAUUACGUAAC,-0.517 ± 0.11,-0.62 ± 0.24
GCUUAGCAAUAUUACGUACG,-1.07 ± 0.065,0.0666 ± 0.089
GCUUAGCAAUAUUACGUAUG,-1.6 ± 0.18,-1.17 ± 0.2
GCUUAGCAAUAUUACGUGUU,-0.915 ± 0.081,-0.409 ± 0.087
GCUUAGCAAUAUUACGUUAA,,-2.84 ± 0.29
GCUUAGCAAUAUUACGUUUG,-2.23 ± 0.12,-1.58 ± 0.14
GGAAAGCAAUAUUACGACGC,-0.197 ± 0.1,0.595 ± 0.16
GGAAAGCAAUAUUACGAUGG,-3.14 ± 0.22,-2.39 ± 0.21
GGAAAGCAAUAUUACGCAUA,-0.868 ± 0.1,-1.5 ± 0.12
GGAAAGCAAUAUUACGCGAG,-0.597 ± 0.1,0.758 ± 0.1
GGAAAGCAAUAUUACGCGUU,-3.16 ± 0.16,-2.49 ± 0.19
GGAAAGCAAUAUUACGCUAU,-2.74 ± 0.28,-2.11 ± 0.21
GGAAAGCAAUAUUACGCUGC,-3.32 ± 0.38,
GGAAAGCAAUAUUACGGAUU,-1.93 ± 0.085,-0.946 ± 0.11
GGAAAGCAAUAUUACGGCAC,-0.927 ± 0.12,-0.0107 ± 0.14
GGAAAGCAAUAUUACGGGCU,-1.29 ± 0.12,-0.815 ± 0.18
GGAAAGCAAUAUUACGUAUC,-2.09 ± 0.18,-1.01 ± 0.15
GGAAAGCAAUAUUACGUCAU,-2.34 ± 0.18,-1.38 ± 0.18
GGAAAGCAAUAUUACGUCCU,-3.68 ± 0.21,-1.14 ± 0.14
GGAAAGCAAUAUUACGUCUG,-0.579 ± 0.054,0.2 ± 0.07
GGAAAGCAAUAUUACGUCUU,-0.00168 ± 0.13,-0.112 ± 0.15

Sequence,self-splicing fitness (ln) (30 °C),self-splicing fitness (ln) (37 °C)
GGAAAGCAAUAUUACGUGCU,-1.11 ± 0.089,-0.467 ± 0.096
GGAAAGCAAUAUUACGUUGU,-4.15 ± 0.23,-2.19 ± 0.15
GGACAGCAAUAUUACGACGA,-1.77 ± 0.16,-0.403 ± 0.19
GGACAGCAAUAUUACGACGG,-2.69 ± 0.28,-2.16 ± 0.36
GGACAGCAAUAUUACGAGAU,-3.03 ± 0.14,-1.45 ± 0.13
GGACAGCAAUAUUACGAUUU,0.167 ± 0.047,0.417 ± 0.065
GGACAGCAAUAUUACGCACU,-1.12 ± 0.086,-0.6 ± 0.13
GGACAGCAAUAUUACGCUUG,-1.45 ± 0.094,-0.762 ± 0.11
GGACAGCAAUAUUACGGAUA,-1.13 ± 0.11,-1.51 ± 0.093
GGACAGCAAUAUUACGGCCU,-2.3 ± 0.13,-1.13 ± 0.12
GGACAGCAAUAUUACGGGAC,-1.56 ± 0.13,-1.98 ± 0.19
GGACAGCAAUAUUACGGGUC,-3.54 ± 0.23,-2.56 ± 0.26
GGACAGCAAUAUUACGGUCG,-1.1 ± 0.092,-0.39 ± 0.14
GGACAGCAAUAUUACGUAUU,-0.426 ± 0.049,-0.492 ± 0.068
GGACAGCAAUAUUACGUCGC,-3.12 ± 0.18,0.343 ± 0.15
GGACAGCAAUAUUACGUCGU,-1.45 ± 0.071,-0.405 ± 0.075
GGAGAGCAAUAUUACGAAAU,,-2.48 ± 0.48
GGAGAGCAAUAUUACGACGC,-0.0524 ± 0.081,-0.0426 ± 0.092
GGAGAGCAAUAUUACGACGG,-2.35 ± 0.29,-2.17 ± 0.36
GGAGAGCAAUAUUACGAGAC,-2.12 ± 0.22,-1.88 ± 0.35
GGAGAGCAAUAUUACGAUCU,,-2.47 ± 0.29
GGAGAGCAAUAUUACGAUGG,-4.43 ± 0.46,
GGAGAGCAAUAUUACGAUUA,,-0.884 ± 0.37
GGAGAGCAAUAUUACGAUUG,-2.75 ± 0.26,-2.17 ± 0.43
GGAGAGCAAUAUUACGAUUU,-1.65 ± 0.24,0.185 ± 0.43

Sequence,self-splicing fitness (ln) (30 °C),self-splicing fitness (ln) (37 °C)
GGAGAGCAAUAUUACGCCUC,-3.07 ± 0.36,
GGAGAGCAAUAUUACGCGAA,-2.02 ± 0.24,-2.72 ± 0.36
GGAGAGCAAUAUUACGCGCA,-1.36 ± 0.19,-0.414 ± 0.21
GGAGAGCAAUAUUACGCGGG,-2.21 ± 0.35,
GGAGAGCAAUAUUACGGAGA,-2.3 ± 0.29,
GGAGAGCAAUAUUACGGGAC,-2.46 ± 0.23,-0.231 ± 0.32
GGAGAGCAAUAUUACGGGCU,-2.73 ± 0.27,
GGAGAGCAAUAUUACGGUCA,-1.14 ± 0.2,-2.11 ± 0.36
GGAGAGCAAUAUUACGGUGG,-3.5 ± 0.28,-2.25 ± 0.23
GGAGAGCAAUAUUACGUCCG,-1.5 ± 0.1,-0.937 ± 0.13
GGAGAGCAAUAUUACGUGGG,-3.07 ± 0.44,-2.28 ± 0.33
GGAGAGCAAUAUUACGUUCC,,-2 ± 0.28
GGAUAGCAAUAUUACGAACU,-0.708 ± 0.15,-0.573 ± 0.19
GGAUAGCAAUAUUACGAAGC,-2.6 ± 0.48,
GGAUAGCAAUAUUACGACAA,-0.923 ± 0.12,-0.865 ± 0.14
GGAUAGCAAUAUUACGACUG,-0.737 ± 0.15,-1.08 ± 0.19
GGAUAGCAAUAUUACGAGCA,-1.26 ± 0.26,-1.05 ± 0.14
GGAUAGCAAUAUUACGAGGA,-3.28 ± 0.25,-1.15 ± 0.17
GGAUAGCAAUAUUACGAGUU,-1.59 ± 0.1,-1.64 ± 0.14
GGAUAGCAAUAUUACGAUUG,-1.55 ± 0.15,-1.44 ± 0.24
GGAUAGCAAUAUUACGAUUU,0.317 ± 0.072,0.459 ± 0.09
GGAUAGCAAUAUUACGCCCA,-1.36 ± 0.49,-1.39 ± 0.33
GGAUAGCAAUAUUACGCCCU,-2.08 ± 0.14,-2.27 ± 0.17
GGAUAGCAAUAUUACGCGUA,-0.646 ± 0.21,-2.02 ± 0.18
GGAUAGCAAUAUUACGCUUG,-1.81 ± 0.12,-1.11 ± 0.16

Sequence,self-splicing fitness (ln) (30 °C),self-splicing fitness (ln) (37 °C)
GGAUAGCAAUAUUACGGAUA,,-1.56 ± 0.26
GGAUAGCAAUAUUACGGCCA,-0.925 ± 0.19,-0.211 ± 0.18
GGAUAGCAAUAUUACGUACU,-0.979 ± 0.096,0.0901 ± 0.14
GGAUAGCAAUAUUACGUAUA,-2.53 ± 0.2,-0.564 ± 0.15
GGAUAGCAAUAUUACGUCAA,-1.09 ± 0.19,0.00829 ± 0.15
GGAUAGCAAUAUUACGUGGA,-3.31 ± 0.21,-2.47 ± 0.21
GGAUAGCAAUAUUACGUGGG,,-0.24 ± 0.16
GGAUAGCAAUAUUACGUGUA,-2.33 ± 0.13,-2.18 ± 0.12
GGAUAGCAAUAUUACGUGUC,-3.16 ± 0.28,
GGAUAGCAAUAUUACGUGUU,-3.31 ± 0.17,-1.63 ± 0.14
GGCAAGCAAUAUUACGACGC,-0.177 ± 0.14,-0.105 ± 0.17
GGCAAGCAAUAUUACGACGG,-2.85 ± 0.16,-2.72 ± 0.2
GGCAAGCAAUAUUACGAUGG,-2.61 ± 0.19,-1.52 ± 0.16
GGCAAGCAAUAUUACGCCGA,-2.14 ± 0.32,-0.337 ± 0.25
GGCAAGCAAUAUUACGCCUC,-2.03 ± 0.13,-1.34 ± 0.12
GGCAAGCAAUAUUACGCCUU,-2.83 ± 0.22,-0.231 ± 0.16
GGCAAGCAAUAUUACGGGGU,-2.5 ± 0.099,-0.776 ± 0.094
GGCAAGCAAUAUUACGGUCA,-0.571 ± 0.09,0.329 ± 0.096
GGCAAGCAAUAUUACGGUUU,-0.376 ± 0.052,0.232 ± 0.069
GGCAAGCAAUAUUACGUACC,-1.35 ± 0.065,-0.299 ± 0.083
GGCAAGCAAUAUUACGUCAC,-3.31 ± 0.22,-0.36 ± 0.17
GGCAAGCAAUAUUACGUCCU,-1.39 ± 0.088,-1.54 ± 0.11
GGCAAGCAAUAUUACGUCGC,-2.66 ± 0.14,-1.38 ± 0.13
GGCAAGCAAUAUUACGUCGG,-3.42 ± 0.2,-2.47 ± 0.32
GGCAAGCAAUAUUACGUUGA,-0.666 ± 0.066,-0.307 ± 0.092
